Measurements: PMC5339710, “Single-molecule studies reveal reciprocating of WRN helicase core along ssDNA during DNA unwinding”

Legend:
[1] = biological target: T1, WRN helicase core (WRN512-1213) (Gallus gallus, UniProt D3KR65 512-1213); assay: fluorescence polarization anisotropy; 0.2 mM ATPgS; 5 mM Mg2+; Hill coefficient 1; 20 mM Tris-HCl pH 8.0, 50 mM KCl, 5 mM MgCl2, 5 nM DNA, 25 C, 5 min equilibration; conditions: protein: recombinant; tags: 6xHis-SUMO at N-terminus, cleaved with Ulp; label: fluorescein (FAM), position by colour only; single strand
T1 sequence: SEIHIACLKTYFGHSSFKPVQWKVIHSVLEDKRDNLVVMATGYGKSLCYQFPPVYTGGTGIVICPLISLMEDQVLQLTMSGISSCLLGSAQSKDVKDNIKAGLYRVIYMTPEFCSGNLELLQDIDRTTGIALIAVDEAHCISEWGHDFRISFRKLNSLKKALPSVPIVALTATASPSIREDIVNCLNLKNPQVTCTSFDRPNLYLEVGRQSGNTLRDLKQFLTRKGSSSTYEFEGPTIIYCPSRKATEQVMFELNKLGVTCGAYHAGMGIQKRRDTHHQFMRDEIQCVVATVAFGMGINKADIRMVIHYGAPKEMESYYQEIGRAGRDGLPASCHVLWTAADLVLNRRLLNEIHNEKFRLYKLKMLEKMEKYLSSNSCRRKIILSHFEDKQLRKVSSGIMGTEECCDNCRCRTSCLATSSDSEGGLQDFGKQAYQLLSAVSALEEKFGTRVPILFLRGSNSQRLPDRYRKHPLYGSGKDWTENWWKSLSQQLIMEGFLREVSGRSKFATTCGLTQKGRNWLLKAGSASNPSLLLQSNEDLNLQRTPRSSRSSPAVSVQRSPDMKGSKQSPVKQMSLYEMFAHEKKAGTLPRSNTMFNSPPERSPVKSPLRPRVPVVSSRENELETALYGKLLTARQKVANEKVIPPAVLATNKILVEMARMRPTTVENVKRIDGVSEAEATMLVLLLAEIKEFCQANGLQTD

[2] = biological target: T1, WRN helicase core (WRN512-1213); assay: fluorescence polarization anisotropy; 0.2 mM ADP; 5 mM Mg2+; Hill coefficient 1; 20 mM Tris-HCl pH 8.0, 50 mM KCl, 5 mM MgCl2, 5 nM DNA, 25 C, 5 min equilibration; conditions: protein: recombinant; tags: 6xHis-SUMO at N-terminus, cleaved with Ulp; label: fluorescein (FAM), position by colour only; single strand
[3] = biological target: T1, WRN helicase core (WRN512-1213); assay: fluorescence polarization anisotropy; 5 mM Mg2+; no nucleotide stated; Hill coefficient 2; 20 mM Tris-HCl pH 8.0, 50 mM KCl, 5 mM MgCl2, 5 nM DNA, 25 C, 5 min equilibration; conditions: protein: recombinant; tags: 6xHis-SUMO at N-terminus, cleaved with Ulp; label: fluorescein (FAM), position by colour only; blunt

| Binder | Kd [1] | Kd [2] | Kd [3] |
| --- | --- | --- | --- |
| CTCTGCTCGACGGATT (ssDNA) [16nt-FAM] | 76.6 ± 4.2 nM | 141 ± 10.5 nM | – |
| 16bp-FAM (dsDNA) DNA 1: CTCTGCTCGACGGATT DNA 2: AATCCGTCGAGCAGAG | – | – | 32.2 ± 2.8 nM |
